Experimental data as given in the supplement of paper PMC10724198.
± gives the standard deviation of the averaged measurements.

Legend:
Saccharomyces cerevisiae [1] = assay: protein stability index of tFT-peptide fusion (C-terminal peptide) (PSI (0-1 scale)); higher = more stable (slower turnover)
Experimental: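 MPS profiling in S. cerevisiae of the tFT-X12 degron library: putative degron peptides plus stable controls, 12 aa, fused to the C-terminus of a sfGFP-mCherry timer. Cells are FACS-sorted into 8 mCherry/sfGFP bins and deep-sequenced. PSI runs from 0 (unstable) to 1 (stable). Backgrounds are wild type, das1Δ and doa10Δ at 30 °C, and wild type, das1Δ, cdc34-1 and cdc53-1 at 37 °C; 2-3 technical replicates each.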

Saccharomyces cerevisiae [2] = assay: as above; settings: genetic background: wild type; temperature: 30 C
[3] = genetic background: cdc34-1, temperature: 37 C
[4] = genetic background: cdc53-1, temperature: 37 C
[5] = genetic background: das1 deletion, temperature: 30 C
[6] = genetic background: das1 deletion, temperature: 37 C
[7] = genetic background: doa10 deletion, temperature: 30 C
[8] = genetic background: wild type, temperature: 30 C
[9] = genetic background: wild type, temperature: 37 C
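Also: PSI is a weighted mean of sequencing reads over stability bins, variants kept only with over 10 reads, mCherry proximal and sfGFP distal, peptide attached via GGGS linker.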

Sequence GYLFICSWCEGF has a protein stability index (Saccharomyces cerevisiae [1]; [3]) of 0.46 ± 0.059, a protein stability index (Saccharomyces cerevisiae [1]; [4]) of 0.503 ± 0.01 and a protein stability index (Saccharomyces cerevisiae [1]; [5]) of 0.363 ± 0.023. It also gave a protein stability index (Saccharomyces cerevisiae [1]; [6]) of 0.503 ± 0.029, a protein stability index (Saccharomyces cerevisiae [1]; [7]) of 0.352 ± 0.028 and a protein stability index (Saccharomyces cerevisiae [1]; [8]) of 0.346 ± 0.018. For the same sequence, the protein stability index (Saccharomyces cerevisiae [1]; [9]) was 0.4849 ± 0.0034 and the protein stability index (Saccharomyces cerevisiae [2]) was 0.427 ± 0.048.

HDRLRGVFWRVP gave a protein stability index (Saccharomyces cerevisiae [1]; [3]) of 0.669 ± 0.066, a protein stability index (Saccharomyces cerevisiae [1]; [4]) of 0.739 ± 0.01 and a protein stability index (Saccharomyces cerevisiae [1]; [5]) of 0.655 ± 0.038. For the same sequence, the protein stability index (Saccharomyces cerevisiae [1]; [6]) was 0.74321 ± 0.00071, the protein stability index (Saccharomyces cerevisiae [1]; [7]) was 0.263 ± 0.015 and the protein stability index (Saccharomyces cerevisiae [1]; [8]) was 0.308 ± 0.032. It also gave a protein stability index (Saccharomyces cerevisiae [1]; [9]) of 0.5752 ± 0.0019 and a protein stability index (Saccharomyces cerevisiae [2]) of 0.439 ± 0.014.

For HGVRLHTVWVGG, the protein stability index (Saccharomyces cerevisiae [1]; [3]) was 0.55 ± 0.029, the protein stability index (Saccharomyces cerevisiae [1]; [4]) was 0.559 ± 0.026 and the protein stability index (Saccharomyces cerevisiae [1]; [5]) was 0.413 ± 0.011. It also gave a protein stability index (Saccharomyces cerevisiae [1]; [6]) of 0.597 ± 0.0065, a protein stability index (Saccharomyces cerevisiae [1]; [7]) of 0.347 ± 0.0076 and a protein stability index (Saccharomyces cerevisiae [1]; [8]) of 0.4 ± 0.033. The protein stability index (Saccharomyces cerevisiae [1]; [9]) was 0.5437 ± 0.005 and the protein stability index (Saccharomyces cerevisiae [2]) was 0.4918 ± 0.0038.

Work on HLKKKLKIRLIN yielded a protein stability index (Saccharomyces cerevisiae [1]; [3]) of 0.488 ± 0.16, a protein stability index (Saccharomyces cerevisiae [1]; [4]) of 0.685 ± 0.02 and a protein stability index (Saccharomyces cerevisiae [1]; [5]) of 0.645 ± 0.011. The protein stability index (Saccharomyces cerevisiae [1]; [6]) was 0.698 ± 0.036, the protein stability index (Saccharomyces cerevisiae [1]; [7]) was 0.108 ± 0.01 and the protein stability index (Saccharomyces cerevisiae [1]; [8]) was 0.116 ± 0.02. It also gave a protein stability index (Saccharomyces cerevisiae [1]; [9]) of 0.171 ± 0.018 and a protein stability index (Saccharomyces cerevisiae [2]) of 0.238 ± 0.031.

In the case of HSRALLPYLSYH, the protein stability index (Saccharomyces cerevisiae [1]; [3]) is reported as 0.684 ± 0.04, the protein stability index (Saccharomyces cerevisiae [1]; [4]) is reported as 0.753 ± 0.016 and the protein stability index (Saccharomyces cerevisiae [1]; [5]) is reported as 0.651 ± 0.021. For the same sequence, the protein stability index (Saccharomyces cerevisiae [1]; [6]) was 0.7732 ± 0.007, the protein stability index (Saccharomyces cerevisiae [1]; [7]) was 0.408 ± 0.013 and the protein stability index (Saccharomyces cerevisiae [1]; [8]) was 0.388 ± 0.021. The protein stability index (Saccharomyces cerevisiae [1]; [9]) was 0.558 ± 0.012 and the protein stability index (Saccharomyces cerevisiae [2]) was 0.518 ± 0.029.

HTYSFRLLFIFL showed a protein stability index (Saccharomyces cerevisiae [1]; [3]) of 0.378 ± 0.031, a protein stability index (Saccharomyces cerevisiae [1]; [4]) of 0.456 ± 0.016 and a protein stability index (Saccharomyces cerevisiae [1]; [5]) of 0.328 ± 0.035. For the same sequence, the protein stability index (Saccharomyces cerevisiae [1]; [6]) was 0.4762 ± 0.0044, the protein stability index (Saccharomyces cerevisiae [1]; [7]) was 0.381 ± 0.013 and the protein stability index (Saccharomyces cerevisiae [1]; [8]) was 0.321 ± 0.022. For the same sequence, the protein stability index (Saccharomyces cerevisiae [1]; [9]) was 0.45677 ± 0.00022 and the protein stability index (Saccharomyces cerevisiae [2]) was 0.388 ± 0.05.

HVPPVFQASLSP showed a protein stability index (Saccharomyces cerevisiae [1]; [3]) of 0.675 ± 0.072, a protein stability index (Saccharomyces cerevisiae [1]; [4]) of 0.7368 ± 0.0055 and a protein stability index (Saccharomyces cerevisiae [1]; [5]) of 0.662 ± 0.014. It also gave a protein stability index (Saccharomyces cerevisiae [1]; [6]) of 0.743 ± 0.015, a protein stability index (Saccharomyces cerevisiae [1]; [7]) of 0.662 ± 0.011 and a protein stability index (Saccharomyces cerevisiae [1]; [8]) of 0.667 ± 0.017. The protein stability index (Saccharomyces cerevisiae [1]; [9]) was 0.7131 ± 0.0057 and the protein stability index (Saccharomyces cerevisiae [2]) was 0.747 ± 0.037.

With ICFFQGVVVLFR the protein stability index (Saccharomyces cerevisiae [1]; [3]) was 0.353 ± 0.033, the protein stability index (Saccharomyces cerevisiae [1]; [4]) was 0.403 ± 0.005 and the protein stability index (Saccharomyces cerevisiae [1]; [5]) was 0.312 ± 0.026. The protein stability index (Saccharomyces cerevisiae [1]; [6]) was 0.48 ± 0.014, the protein stability index (Saccharomyces cerevisiae [1]; [7]) was 0.3653 ± 0.0027 and the protein stability index (Saccharomyces cerevisiae [1]; [8]) was 0.303 ± 0.044. It also gave a protein stability index (Saccharomyces cerevisiae [1]; [9]) of 0.4521 ± 0.0013 and a protein stability index (Saccharomyces cerevisiae [2]) of 0.407 ± 0.0077.

With IFFVLVFFPGFF the protein stability index (Saccharomyces cerevisiae [1]; [3]) was 0.483 ± 0.036, the protein stability index (Saccharomyces cerevisiae [1]; [4]) was 0.541 ± 0.022 and the protein stability index (Saccharomyces cerevisiae [1]; [5]) was 0.366 ± 0.035. It also gave a protein stability index (Saccharomyces cerevisiae [1]; [6]) of 0.548 ± 0.014, a protein stability index (Saccharomyces cerevisiae [1]; [7]) of 0.359 ± 0.023 and a protein stability index (Saccharomyces cerevisiae [1]; [8]) of 0.374 ± 0.0071. The protein stability index (Saccharomyces cerevisiae [1]; [9]) was 0.506 ± 0.012 and the protein stability index (Saccharomyces cerevisiae [2]) was 0.443 ± 0.06.

Sequence IFHWLYLLIALI has a protein stability index (Saccharomyces cerevisiae [1]; [3]) of 0.459 ± 0.025, a protein stability index (Saccharomyces cerevisiae [1]; [4]) of 0.497 ± 0.015 and a protein stability index (Saccharomyces cerevisiae [1]; [5]) of 0.436 ± 0.027. It also gave a protein stability index (Saccharomyces cerevisiae [1]; [6]) of 0.524 ± 0.0054, a protein stability index (Saccharomyces cerevisiae [1]; [7]) of 0.2701 ± 0.0025 and a protein stability index (Saccharomyces cerevisiae [1]; [8]) of 0.254 ± 0.029. It also gave a protein stability index (Saccharomyces cerevisiae [1]; [9]) of 0.312 ± 0.014 and a protein stability index (Saccharomyces cerevisiae [2]) of 0.309 ± 0.014.

Sequence IFLKFGLLRSLL has a protein stability index (Saccharomyces cerevisiae [1]; [3]) of 0.9386 ± 0.006, a protein stability index (Saccharomyces cerevisiae [1]; [4]) of 0.8936 ± 0.0072 and a protein stability index (Saccharomyces cerevisiae [1]; [5]) of 0.744 ± 0.012. It also gave a protein stability index (Saccharomyces cerevisiae [1]; [6]) of 0.85 ± 0.031, a protein stability index (Saccharomyces cerevisiae [1]; [7]) of 0.6161 ± 0.0027 and a protein stability index (Saccharomyces cerevisiae [1]; [8]) of 0.628 ± 0.046. For the same sequence, the protein stability index (Saccharomyces cerevisiae [1]; [9]) was 0.792 ± 0.053 and the protein stability index (Saccharomyces cerevisiae [2]) was 0.488 ± 0.026.

IGMVSELLLFYP was tested, and the protein stability index (Saccharomyces cerevisiae [1]; [3]) was 0.721 ± 0.047, the protein stability index (Saccharomyces cerevisiae [1]; [4]) was 0.7374 ± 0.0073 and the protein stability index (Saccharomyces cerevisiae [1]; [5]) was 0.671 ± 0.022. For the same sequence, the protein stability index (Saccharomyces cerevisiae [1]; [6]) was 0.7676 ± 0.0068, the protein stability index (Saccharomyces cerevisiae [1]; [7]) was 0.63 ± 0.0085 and the protein stability index (Saccharomyces cerevisiae [1]; [8]) was 0.667 ± 0.045. The protein stability index (Saccharomyces cerevisiae [1]; [9]) was 0.73 ± 0.008 and the protein stability index (Saccharomyces cerevisiae [2]) was 0.72 ± 0.017.

For IGSFYVLSFICQ, the protein stability index (Saccharomyces cerevisiae [1]; [3]) was 0.593 ± 0.043, the protein stability index (Saccharomyces cerevisiae [1]; [4]) was 0.61 ± 0.018 and the protein stability index (Saccharomyces cerevisiae [1]; [5]) was 0.454 ± 0.021. For the same sequence, the protein stability index (Saccharomyces cerevisiae [1]; [6]) was 0.626 ± 0.019, the protein stability index (Saccharomyces cerevisiae [1]; [7]) was 0.438 ± 0.024 and the protein stability index (Saccharomyces cerevisiae [1]; [8]) was 0.458 ± 0.043. For the same sequence, the protein stability index (Saccharomyces cerevisiae [1]; [9]) was 0.592 ± 0.014 and the protein stability index (Saccharomyces cerevisiae [2]) was 0.475 ± 0.02.

With IHTFSVVVVVAA the protein stability index (Saccharomyces cerevisiae [1]; [3]) was 0.0536 ± 0.037, the protein stability index (Saccharomyces cerevisiae [1]; [4]) was 0.0437 ± 0.026 and the protein stability index (Saccharomyces cerevisiae [1]; [5]) was 0.128 ± 0.029. It also gave a protein stability index (Saccharomyces cerevisiae [1]; [6]) of 0.135 ± 0.0088, a protein stability index (Saccharomyces cerevisiae [1]; [7]) of 0.0749 ± 0.0091 and a protein stability index (Saccharomyces cerevisiae [1]; [8]) of 0.114 ± 0.031. It also gave a protein stability index (Saccharomyces cerevisiae [1]; [9]) of 0.128 ± 0.03 and a protein stability index (Saccharomyces cerevisiae [2]) of 0.163 ± 0.022.

IIFACFYGVFLM gave a protein stability index (Saccharomyces cerevisiae [1]; [3]) of 0.0485 ± 0.025, a protein stability index (Saccharomyces cerevisiae [1]; [4]) of 0.0619 ± 0.03 and a protein stability index (Saccharomyces cerevisiae [1]; [5]) of 0.141 ± 0.019. The protein stability index (Saccharomyces cerevisiae [1]; [6]) was 0.169 ± 0.024, the protein stability index (Saccharomyces cerevisiae [1]; [7]) was 0.282 ± 0.052 and the protein stability index (Saccharomyces cerevisiae [1]; [8]) was 0.0949 ± 0.036. For the same sequence, the protein stability index (Saccharomyces cerevisiae [1]; [9]) was 0.109 ± 0.0083 and the protein stability index (Saccharomyces cerevisiae [2]) was 0.187 ± 0.0052.
